In article PMC3714218 (Current biology : CB, 2013):
Read-outs that look alike come from different tables or passages of the source. Values belong to the binder of their own block, whether it stands above or below them.

Experiments:
yeast Arp2/3 complex [1] = target: T1, yeast Arp2/3 complex (yeast, UniProt P32381 1-391; P47117 1-449; P38328 1-384; P53731 1-342; Q05933 1-178; P33204 …); assay: fluorescence polarisation
yeast Arp2/3 complex [2] = target: T1, yeast Arp2/3 complex; assay: AUC
yeast Arp2/3 complex [3] = target: T1, yeast Arp2/3 complex; assay: fluorescence polarisation; remark: listed apart in the source
[4] = target: ArpC1/Arc40 (subunit of yeast Arp2/3 complex) (yeast, UniProt P38328 1-384); assay: cross-linking
[5] = target: Arp3 (subunit of yeast Arp2/3 complex) (yeast, UniProt P47117 1-449); assay: cross-linking
Chain of Arp3 (subunit of yeast Arp2/3 complex) (P47117 whole entry, one chain of several): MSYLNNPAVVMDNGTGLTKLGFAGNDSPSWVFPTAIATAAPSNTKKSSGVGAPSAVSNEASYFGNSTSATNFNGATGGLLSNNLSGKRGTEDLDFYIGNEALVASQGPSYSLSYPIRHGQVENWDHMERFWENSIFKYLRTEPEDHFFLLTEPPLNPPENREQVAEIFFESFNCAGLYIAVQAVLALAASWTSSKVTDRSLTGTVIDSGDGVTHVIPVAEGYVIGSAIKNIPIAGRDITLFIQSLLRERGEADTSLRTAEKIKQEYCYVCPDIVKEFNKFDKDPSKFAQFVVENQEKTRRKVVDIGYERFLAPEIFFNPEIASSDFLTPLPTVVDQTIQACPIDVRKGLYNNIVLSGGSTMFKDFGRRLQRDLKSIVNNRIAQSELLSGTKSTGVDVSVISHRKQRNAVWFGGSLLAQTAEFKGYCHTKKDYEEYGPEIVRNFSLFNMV

Chain of ArpC1/Arc40 (subunit of yeast Arp2/3 complex) (P38328 whole entry, one chain of several): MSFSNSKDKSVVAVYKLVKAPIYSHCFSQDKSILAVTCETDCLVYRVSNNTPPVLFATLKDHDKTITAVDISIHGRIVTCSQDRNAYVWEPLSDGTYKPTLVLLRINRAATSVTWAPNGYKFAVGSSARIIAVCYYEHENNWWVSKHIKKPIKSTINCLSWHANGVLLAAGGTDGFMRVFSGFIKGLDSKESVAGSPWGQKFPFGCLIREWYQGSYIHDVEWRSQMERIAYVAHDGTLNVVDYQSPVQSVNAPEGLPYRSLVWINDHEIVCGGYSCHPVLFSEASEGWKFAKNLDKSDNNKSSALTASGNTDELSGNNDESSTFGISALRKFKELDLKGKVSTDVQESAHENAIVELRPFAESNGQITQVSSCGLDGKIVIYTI

Kd (yeast Arp2/3 complex [1]): 13 ± 2 nM | KD of the first binding site (yeast Arp2/3 complex [2]): < 30 nM | KD of the second binding site (yeast Arp2/3 complex [2]): ~2 µM | stoichiometry N (yeast Arp2/3 complex [2]): ~2 Gmf1-GFP per Arp2/3 complex
B1: Gmf1-GFP (natural protein, S. cerevisiae, UniProt Q12156 1-149, looked up)
chain: MSNLYKIGTETRNKIKKFRTSTARTDSIKALSIKIEPKPSYEIIVDEDEQEELDEIEDLSELAEILPDNSPRFVLTAYPTTTKDGFKQTPLVLVYWKPMTVVSQEWKMLYAGALEMIREECGTFKLIEVSSGLEDDSDVEELREQLENC

Kd (yeast Arp2/3 complex [3]): 10 ± 3 nM | binding result [4]: binds | binding result [5]: binds
B2: wild-type Gmf1 (untagged) (natural protein, S. cerevisiae, UniProt Q12156 1-149, looked up)
chain: B1 chain
